Test results published in PMC9972897 (Science immunology, 2023).
Where a chain is given by its changes, count along the chain named.

B1: sd1.040 Fab (Fab, V domains shown)
VH: QVQLVQSGAEVKKPGASVKVSCKASGYTFTSFYIHWVRQAPGQGLEWMGIIDPSGGSTSYPQKFQGRVTMTRDTSTSTVYMDLSSLRSEDTAVYYCTRDGSAGDNSWFDPWGQGTLVTVSS
VL: not shown
B2: fp.006 Fab (Fab, V domains shown)
VH: EVQLVESGGGVVQPGGSLRLSCAASGFNFNNYALHWVRQAPGKGLEWVAIISYEARNKKYGVSVMGRFSISRDNSKSIMYLEMNSLRVEDTGVYYCARDLFLSDYDRSGYDPTRGGFDHWGQGTLVTVSS
VL: EIVMTQSPATLSVSPGERATLSCRASQSVSSSLAWYQHRFGQAPRLLISGASTRATGIPGRFSGSGSGTEFTLTISSLQSEDVAVYYCQQYGDWPLVTFGGGTKVEIK
B3: fp.007 monoclonal antibody (IgG) (antibody, V domains shown)
VH: EVQLVESGGGLVKPGGSLRLSCAGTGFIFSDAWMTWVRQAPGKGLEWVGRIKSKADGGTTDYAAPVKGRFTISRDDSKNTLYLEINSLKTEDTAVYYCTTGRSRYCIGAVCYYFDHWGQGTLVTVSS
VL: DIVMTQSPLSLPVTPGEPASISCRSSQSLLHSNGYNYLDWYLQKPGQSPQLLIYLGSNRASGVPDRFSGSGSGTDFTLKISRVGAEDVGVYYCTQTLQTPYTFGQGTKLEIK
B4: hr2.016 monoclonal antibody (IgG) (antibody, V domains shown)
VH: EVQLLESGGGLVQPGGSLRLSCAASGFMFSKYAMTWVRQTPGKGLEWVSVISGGGGSTYYADSVKGRFTISRDNSKNTLYLQMNSLRAEDTAVYYCAKLLVVFVIDYWGQGALVTVSS
VL: EIVLTQSPGTLSLSPGERATLFCRASQSVSSNLAWYQQKPGRAPRLLISGASSRATGIPDRFSGSGSGTDFTLTISRLEPEDFAVYYCQQYGSSPPTFGQGTKVEIK
B5: fp.006 monoclonal antibody (IgG) (antibody, V domains shown)
VH: B2 VH
VL: B2 VL
B6: hr2.023 monoclonal antibody (IgG) (antibody, V domains shown)
VH: QVQLVQSGAEVKKPGASVKVSCRASENIFSDSYLHWVRQAPGQGLEWMGIITPSGDKTFYAQQFQGRLTMTRDTPTNTLHMDLRGLTSADTAIYYCARQATKGGWDYWGQGTLVTVSS
VL: EIVLTQSPGTLSLSPGESATLSCRASQSVTRNYLAWYQQQPGQAPRLLIYGASNRATGVPDRFSGSGSGTDFTLTISRLEPEDFAVYYCQQYGSSPPTFIFGPGTKVDIK
B7: sd1.040 monoclonal antibody (IgG) (antibody, V domains shown)
VH: B1 VH
VL: not shown
B8: fp.002 (antibody, V domains shown)
VH: VQLVESGGGVVQPGTSLRLSCAGSGFNFDNYAIHWVRQAPGQGLEWVAIISYEARNKKYAGSVTGRFSISRDNSKSMVYLQMDSLRGEDTAVYYCARDLFLSDYDRSGYDPTRGGFDLWGQGTLVTVSS
VL: B2 VL with R39K, F40L, S49Y, V85I
B9: fp.008 (antibody, V domains shown)
VH: VQLVESGGGVVQPGRSLRLSCRASGFRFNNYAMHWVRQAPGKGLEWVAIISYEARNEKYAASVKGRFSISRDNAKNTLYLQMNSLRPEDTAIYYCARDVFLSDYDQSGYDVTRGGFDYWGQGTLVTVSS
VL: B2 VL with R18S, R39K, S49Y, G60D, T69M, V85I
B10: fp.009 (antibody, V domains shown)
VH: VQLVESGGGVVQPGTSLTLSCEASGFTFSNYAMHWVRQAPGKGLEWVAIISFDTRNKKFAGSVQGRFSISRDNAKNSIYLQMNNLRPEDTGIYYCARDVFLSDYDSRGFDRTRGGFDYWGQGTLVTVSS
VL: EIVMTQSPATLSVSPGEKATLSCRASESVGSSLAWYQQKLGQAPRLLIYGASTRATGIPARFSGSGSGAEFTLTISSLQSEDFAIYYCQQYGDWPLLTFGGGTKVEIK
B11: fp.005 (antibody, V domains shown)
VH: VQLVESGGGVVQPGNSLRLSCAASGFRFNNYAMHWVRQAPGKGLEWVAIISYEARNEKYADSVKGRFSISRDNAKNTLYLQMNSLRADDTGVYYCARDLFLSDYDTSGYDRTRGGFDYWGQGALVTVSS
VL: B2 VL with S31N, S32G, A43P, S49Y, G60T, V83F, G92D, V97I
B12: fp.004 (antibody, V domains shown)
VH: VQLVESGGGVVQPGTSLRLSCVASGFTFSNYAMHWVRQAPGKGLEWVAIISFDTRNTASAASVKGRFNISRDNSKNSLYLQMNSLRPEDTGVYYCARDLFLSDYDSRGYDPITGGFDCWGQGTLVTVSS
VL: B10 VL with T10A, K18G, E27Q, S32R, Q42R, A43P, A69T, I85V, G92N, E106K
B13: fp.001 (antibody, V domains shown)
VH: VQLVESGGGVVQPGRPLRLSCSGSGFIFSNYAMHWVRQAPGKGLEWVAIISFDARNKRYADSVEGRFTISRDNSKNILYLQMNSLRLEDSAVYFCARDLFLSDYDNGVYDPTRGGFDYWGQGTLVTVSS
VL: EIVMTQSPATLSLSPGERATLSCRASQSVNNRLAWYQQKLGQPPRLLISGASTRATGIPARFTGSGSGTEFTLTISSLQSEDFAVYYCQQYHDWPLLSFGGGTKVEIK
B14: fp.003 (antibody, V domains shown)
VH: VQLVESGGGVVQPGTSLRLSCTASGFSFSNYAMHWVRQAPGKGLEWVAIISFDTRNKEFADSVKGRFSISRDNSKNSLNLQMNSLRPEDTGVYYCARDLFLSDYDSRGYEPSRGGFDYWGQGTLVTVSS
VL: B13 VL with L13V, N30S, N31S, R32S, S49Y, T63S, Q79K, F83S, H92N

The binders below were run against SD1-RBD of SARS-CoV-2 S (ancestral), aa 319-591 (SARS-CoV-2, ancestral (Wuhan-Hu-1; …, UniProt P0DTC2) (assay: SPR). Conditions: both partners purified.

Row | Binder | Kd [nM]
1 | B1 | 4.2

These binders were tested against T1, SARS-CoV-2 fusion peptide (FP) coldspot peptide, 812-831 (SARS-CoV-2 (ancestral), biotin-Ahx at the N-terminus; C-terminal amidation) (assay: crystal structure). Conditions: both partners purified.

Row | Binder | binding result
2 | B2 | binds

These binders were tested against T2, SARS-CoV-2 S (ancestral), C-terminally truncated, expressed on 293T cells (SARS-CoV-2 (ancestral, Wuhan-Hu-1), UniProt P0DTC2) (assay: flow cytometry on cells). Conditions: one partner purified.

Row | Binder | binding result | fold increase of binding (gMFI) with soluble ACE2 [fold]
3 | B3 | binds | 
4 | B4 |  | 2.3
5 | B5 |  | 5.8
6 | B6 |  | 2.4

What follows are binders tested against T2, SARS-CoV-2 S (ancestral), C-terminally … (assay: cell-based or functional assay). Conditions: not given.

Row | Binder | IC50 of neutralisation of SARS-CoV-2 pseudovirus [ng/mL]
7 | B4 | 10
8 | B7 | 245
9 | B5 | 737

The binders below were run against T1, SARS-CoV-2 fusion peptide (FP) coldspot … (assay: not given). Conditions: not given.

Row | Binder | binding result
10 | B8 | binds
11 | B9 | binds
12 | B10 | binds
13 | B11 | binds
14 | B12 | binds
15 | B13 | binds
16 | B14 | binds

The binders below were run against SARS-CoV-2 S-2P ectodomain trimer (ancestral) (SARS-CoV-2 (ancestral, MN908947), stabilised) (assay: not given). Conditions: not given.

Row | Binder | binding result
17 | B8 | binds
18 | B9 | binds
19 | B10 | binds
20 | B11 | binds
21 | B12 | binds
22 | B13 | binds
23 | B14 | binds
